To fix the notation:
B1: Hairpin Ribozyme (parent)
chain: GUCCUCUUUCACGUGCGCGUGAAAGAGAGAAGUGAACCAGAGAAACACACGUUGUGGUAUAUUACCUGGUA

Variants of B1 are the subject of the data set. In words: self-cleavage, relative activity (ratio to wild type); higher = more cleavage; co-transcriptional.
On to GUCCUCUUUCACGUGCGCGUGAAAGAGAGAACUGAACCAGAGAACCACACGUUGUGGUAUAUUACCUGGUA [G32C A45C], for which the self-cleavage came out at 0.145.

For the variant GUCCUCUUUCACGUGCGCGUGAAAGAGAGAAGUCAACCAGAGAAACACACGUUGUGCUAUAUUACCUGGUA [G34C G57C], the self-cleavage stood at 0.195. As to GUCCUCUUUCACGUGCGCGUGAAAGAGAGAAGUGAACCAGAGAAACGCACGUUGUGGUAUAUGACCUGGUA [A47G U63G], the self-cleavage was found to be 0.0332. To GUCCUCUUUCACGAGCGCGUGAAAGAGAGAAGUGAACCAGAGAAAUACACGUUGUGGUAUAUUACCUGGUA [U14A C46U] belongs 0.126; to GUCCUCUUUCACGUGCGCGUGAAAGAGAGAAGUGAACCAGGGAAACGCACGUUGUGGUAUAUUACCUGGUA [A41G A47G], 0.0362. With GUCCUCUUUCACGUGCGCGUGAAAGAGAGAAGAGAACCACAGAAACACACGUUGUGGUAUAUUACCUGGUA [U33A G40C], the self-cleavage amounted to 0.0171.

Regarding GUCCUCUUUCACGUGCGCGUGAAAGAGAGAAGUGUACCAGAGAAACACACGUUGUGGUUUAUUACCUGGUA [A35U A59U], the self-cleavage was determined as 0.117. On to AUCCUCUUUCACGUGCGCGUGAAAGAGAGACGUGAACCAGAGAAACACACGUUGUGGUAUAUUACCUGGUA [G1A A31C], for which the self-cleavage stood at 0.132. As for GUCCUCUUUCACGUGCGCGUGAAAGAGAGAAGUGAAUCAGAGAAACACACGUUGUGGUAUAUUACCUAGUA [C37U G68A], the self-cleavage worked out at 0.257. Consider GUCCUCUUUGACGUGCACGUGAAAGAGAGAAGUGAACCAGAGAAACACACGUUGUGGUAUAUUACCUGGUA [C10G G17A], for which the self-cleavage came to 0.676.

Turning to GUCCUCUUUAACGUGCGCGUGAAAGAGAGAAGUGAACCAGAGAAACACGCGUUGUGGUAUAUUACCUGGUA [C10A A49G], the self-cleavage was 0.357. Turning to GUCCUCUUUCACGUCCGCGUGAAAGAGAGAAGUGAAGCAGAGAAACACACGUUGUGGUAUAUUACCUGGUA [G15C C37G], the self-cleavage is 0.298. GUCCUCUUUCACGUGCGCGUGAUAGAGAGAAGUGAACCAGAGAAACACACGAUGUGGUAUAUUACCUGGUA [A23U U52A]: the self-cleavage worked out at 0.947. In the case of CUCCUCUUUCACGUGCGCGUGAAAGAGAGAAGUGAACCAGCGAAACACACGUUGUGGUAUAUUACCUGGUA [G1C A41C], the self-cleavage is 0.411. Consider GUCCUCUUUCACGUGCGCGUGAAAGAGAGAAGUGAACCAGAGAAACACACGUUGUGGAAUAUUGCCUGGUA [U58A A64G], for which the self-cleavage worked out at 0.247. As for GUCCUCUUUCACGUGCGCGUGAAAGAGUGAAGUGAACCAGAGAAACCCACGUUGUGGUAUAUUACCUGGUA [A28U A47C], the self-cleavage was 0.172. To GUCCUCUUUCACGUGCGCGUGAAAGAGAGAAGUGAACCAGAGAAACACACGUUGUGGUAUACUACCUGAUA [U62C G69A] belongs 0.112; to GUCCUCUUUCACGAGCGCGUGAAAGACAGAAGUGAACCAGAGAAACACACGUUGUGGUAUAUUACCUGGUA [U14A G27C], 0.196; to GUCCUCUUUCACGUGCGCGUGAAAGAGAGAAGUGAACCAGAGAAACACACGUUGUGGUAUAUUACACGGUA [C66A U67C], 0.159. On to GUCCUCUCUCAAGUGCGCGUGAAAGAGAGAAGUGAACCAGAGAAACACACGUUGUGGUAUAUUACCUGGUA [U8C C12A], for which the self-cleavage was found to be 0.164. In the case of GUCCUCUUUCACGUGCGCGUGAAAGAGAGAAGUGAACCAGAGCAACACACGUCGUGGUAUAUUACCUGGUA [A43C U53C] it was 0.163; in that of GUCCUCUUUCACGUGCCCGUGAAAGAGAGAAGUGAACCAGAGAAACACACGUUGUGGUAUAUUACCUGGUU [G17C A71U], 0.639; in that of GUCCUCUUUCACGUGCGAGUGAAAGAGAGAAGUGAAUCAGAGAAACACACGUUGUGGUAUAUUACCUGGUA [C18A C37U], 0.64. In the case of GUCCUAUUUCACGUGCGCGUGAAAGAGUGAAGUGAACCAGAGAAACACACGUUGUGGUAUAUUACCUGGUA [C6A A28U], the self-cleavage was found to be 0.365.

Regarding GUCCUCUUUCACGUGCGCGUGAAAGAGAGAAGUGAACCAGAGAACCACACGUUUUGGUAUAUUACCUGGUA [A45C G54U], the self-cleavage is 0.152. Turning to GUCCUCUCUCACGUGCGCGUGAAAGAGAGAAGUGAACCAGAGAAACACACGCUGUGGUAUAUUACCUGGUA [U8C U52C], the self-cleavage came to 0.405. In the case of GUCGUCUUUCACGUGCGCGUGAAAGAGAGAAGUGAACCAGAGCAACACACGUUGUGGUAUAUUACCUGGUA [C4G A43C], the self-cleavage amounted to 0.121. To GUCCUCUUCCACGUGCGCGUGAAAGAGAGAAGUGAACCCGAGAAACACACGUUGUGGUAUAUUACCUGGUA [U9C A39C] belongs 0.366; to GACCUCUUUCACGAGCGCGUGAAAGAGAGAAGUGAACCAGAGAAACACACGUUGUGGUAUAUUACCUGGUA [U2A U14A], 0.174. GUCCUCUGUCACGUGCGCGUGAAAGAGAGAAGUGAACCAGAGAAACACACGUUGUGGUAUAUAACCUGGUA [U8G U63A]: the self-cleavage came to 0.245. As to GUCCUCUUUCACGUGCGCGUGAAAGAGAGGAGUGAACCAGAGCAACACACGUUGUGGUAUAUUACCUGGUA [A30G A43C], the self-cleavage stood at 0.1. For GUCCUCUUUCACGUGCGCGUGAAAGAGAGAAGUGAACCAGAGAAACACACGUGGUGGUAUAUUACCCGGUA [U53G U67C], the self-cleavage is 0.136. Consider GUCCUCUUUCACGUUCGCGUGAAAGAGAGAAGUGAACCAGAGAAACACACGUUGUGGUAUAUUACCUUGUA [G15U G68U], for which the self-cleavage came out at 0.329. As for GUCAUCUUUCACGUGCGCGUUAAAGAGAGAAGUGAACCAGAGAAACACACGUUGUGGUAUAUUACCUGGUA [C4A G21U], the self-cleavage was determined as 0.178. For GUCCUCUUUCACGUGCGCGUGAAAGAGAGAAGUGAACCAGAGAAACGCACGUUGUGGUAUAUUACGUGGUA [A47G C66G], the self-cleavage was determined as 0.128. For the variant GUCCUCUUUCACGUGCACGUGAAAGAGAGAAGUGAACCAGAGAAACACACGUUGUGGUAUAUCACCUGGUA [G17A U63C], the self-cleavage was 0.181. As to GUCCUCUUUCUCGUGCGCGUGAAAGAGAGGAGUGAACCAGAGAAACACACGUUGUGGUAUAUUACCUGGUA [A11U A30G], the self-cleavage was determined as 0.0913.

Turning to GUCCUCUUUCACGAGCGCGUGAAAGAGAGAAAUGAACCAGAGAAACACACGUUGUGGUAUAUUACCUGGUA [U14A G32A], the self-cleavage came out at 0.106.

The values are drawn from the RNAGym collection of RNA variant scans (doi:10.7554/elife.80360).
